Assay results: US11649460B2, “DNA aptamers, method for inhibiting human galectin-1 and method of treating a mammal in need thereof” (priority 2020, dated 2023)

Legend:
galectins = settings: in vitro; cited from earlier work
[1] = target: T1, native human galectin-1 (hGal1) (Homo sapiens, UniProt P09382); experiment: Thermofluor thermal shift assay (TSA), native galectin-1; type: binding; settings: 5 μM protein
T1 construct: 42; made in house; host or cells: E. coli strain M-15
Description: In an attempt to screen among the selected aptamers that better interact with hGal1, differential scanning fluorimetry (Termofluor) was used to characterize their binding to its target. Among all the selected aptamers, SEQ ID NO.: 4 seemed to have a more intense effect on hGal1 thermoshift and so was chosen for further analysis. The selected aptamer had its interaction evaluated with native and alkylated galectin-1. […] The respective thermal displacements were evaluated as a function of an increasing concentration of SEQ ID NO.: 4 (FIG. 1).
Thermofluor experiments were performed on an Mx3005 RT-PCR (Agilent Technologies) using the SYPRO® Orange dye (492/610 nm) (Invitrogen) as fluorescent probe. The purified (native and alkylated) protein samples were incubated for 30 min with increasing concentration of the molecules of interest, centrifuged, and submitted to the thermal denaturation assay, totalizing four distinct experiments. In a 96-well plate (Agilent Technologies) 20 μl of the reaction containing 5 μM of each protein in buffer PBS 1× and 5× SYPRO® Orange were heated from 25° C. to 95° C. at a rate of 1° C./min. The experimental result was processed as in the protocol previously described and the melting temperature was obtained using GraphPad Prism software (www.graphpad.com).

[2] = target: T2, hGal1-induced hemagglutination of red blood cells (Homo sapiens, UniProt P09382); experiment: Hemagglutination inhibition assay, native hGal1; type: cell-based; settings: native Gal1 5 μM
T2 construct: 42; made in house; host or cells: E. coli strain M-15
Description: Hemagglutination Inhibition Assay
Hemagglutination assay was adopted to assess the capacity of SEQ ID NO.: 4 in inhibiting the lectin cross-linking aggregation of red blood cells (RBC), as previously described. Briefly, using a 96-well microplates appropriate amounts of 5 μM hGal1 were blended with 50 μL of aptamer in an increasing concentrations manner (0-40 μM) in PBS 1× buffer (pH 7.4). Following, 50 μL of 3% purified type B+ RBC in PBS. After 2 h of room temperature incubation, the plate was photographed and the hemagglutination area was estimated by area calculator Sketchandcalc™ and the results were expressed as relative agglutination.

[3] = test system: MCF-7 human breast adenocarcinoma cell line; experiment: SRB cell proliferation (cytotoxicity) assay, MCF-7
Source text: (§1) The XLSTAT software was used to determine the IC50, TGI and LC50 values using the four-parameter logistic curve equation.

[4] = test system: HT-29 human colorectal adenocarcinoma; experiment: SRB cell proliferation (cytotoxicity) assay, HT-29
Source text: as §1

[5] = test system: A-375 human malignant melanoma; experiment: SRB cell proliferation (cytotoxicity) assay, A-375
Source text: as §1

[6] = test system: NHF human foreskin skin fibroblasts; experiment: in vitro
Source text: as §1

[7] = test system: HCT 116 human colorectal carcinoma; experiment: SRB cell proliferation (cytotoxicity) assay, HCT 116
Source text: as §1

OVCAR-3 cell line = experiment: Synergism test with cisplatin, OVCAR-3; settings: cisplatin 3 μM
Source text: For the analysis of cell proliferation, the non-clonogenic method of sulforodamine B (SRB) was used, a protein dye that binds to the basic amino acid residues of cell proteins that were viable at the time of the fixation process. Therefore, the greater the amount of SRB bound per compartment, the less the antiproliferative activity of the item under study.

[8] = test system: OVCAR-3 human ovarian adenocarcinoma cell line; experiment: SRB cell proliferation (cytotoxicity) assay, OVCAR-3
Source text: as §1

[9] = test system: DU-145 human prostate carcinoma cell line; experiment: SRB cell proliferation (cytotoxicity) assay, DU-145
Source text: as §1

[10] = test system: seven cell lines of solid human tumors; experiment: SRB antiproliferative assay, panel of tumor lines; type: cell-based; settings: read-out: 50% growth inhibitory concentrations (IC50); all tumor cell lines assessed
Source text: as §1

[11] = test system: SK-BR-3 human breast adenocarcinoma; experiment: SRB cell proliferation (cytotoxicity) assay, SK-BR-3
Source text: as §1

T2 sequence (P09382 2-135): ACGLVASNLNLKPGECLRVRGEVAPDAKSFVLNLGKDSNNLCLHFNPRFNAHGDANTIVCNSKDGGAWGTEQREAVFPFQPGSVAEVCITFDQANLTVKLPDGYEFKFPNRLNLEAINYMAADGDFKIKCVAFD
T1 sequence (P09382 2-135): as above

1-methyl derivative of LacNac
Kd (galectins): 70 µM

B1: AGCTGACACAGCAGGTTGGTGCCAACAAGAAAAGAAACCGTTACAGAAGACACTACAGAATAAGTGAAAAGCCGAGTCGAGCAATCTCGAAAT (nucleic acid)
DNA: AGCTGACACAGCAGGTTGGTGCCAACAAGAAAAGAAACCGTTACAGAAGACACTACAGAATAAGTGAAAAGCCGAGTCGAGCAATCTCGAAAT
modifications: chemistry not given here
variation of denaturation temperature (Tm) of native hGal1 [1]: greater variation | inhibitory effect on galectin-induced hemagglutination [2]: better effect | Relative viability (%) of test items ([3]; 0.781 µM): 86.4% | Relative viability (%) of test items ([3]; 1.562 µM): 85.8% | Relative viability (%) of test items ([3]; 3.125 µM): 83.0% | Relative viability (%) of test items ([3]; 6.25 µM): 74.2% | Relative viability (%) of test items ([3]; 12.5 µM): 63.0% | Relative viability (%) of test items ([3]; 25 µM): 47.1% | Relative viability (%) of test items ([3]; 50 µM): 25.6% | Relative viability (%) of test items ([3]; 100 µM): −29.0% | TGI: Concentration for total inhibition of cell growth ([3]; MCF-7): 70.609 µM | IC50 ([3]; read-out: IC50: Concentration to inhibit 50% of cell growth, MCF-7): 24.3 µM | CC50 ([3]; read-out: LC50: Concentration for 50% cell death, MCF-7): > 100 µM | Relative cell viability (%) of test items ([4]; 0.781 µM): 90.8% | Relative cell viability (%) of test items ([4]; 1.562 µM): 93.7% | Relative cell viability (%) of test items ([4]; 3.125 µM): 103.0% | Relative cell viability (%) of test items ([4]; 6.25 µM): 94.2% | Relative cell viability (%) of test items ([4]; 12.5 µM): 78.3% | Relative cell viability (%) of test items ([4]; 25 µM): 32.7% | Relative cell viability (%) of test items ([4]; 50 µM): 15.7% | Relative cell viability (%) of test items ([4]; 100 µM): −71.9% | TGI: Concentration for total inhibition of cell growth ([4]; HT-29): 53.711 µM | IC50 ([4]; read-out: IC50: Concentration to inhibit 50% of cell growth, HT-29): 25.1 µM | CC50 ([4]; read-out: LC50: Concentration for 50% cell death, HT-29): 85.8 µM | Relative cell viability (%) of test items ([5]; 0.781 µM): 92.6% | Relative cell viability (%) of test items ([5]; 1.562 µM): 84.5% | Relative cell viability (%) of test items ([5]; 3.125 µM): 87.7% | Relative cell viability (%) of test items ([5]; 6.25 µM): 74.2% | Relative cell viability (%) of test items ([5]; 12.5 µM): 81.1% | Relative cell viability (%) of test items ([5]; 25 µM): 65.8% | Relative cell viability (%) of test items ([5]; 50 µM): 51.6% | Relative cell viability (%) of test items ([5]; 100 µM): −72.1% | TGI: Concentration for total inhibition of cell growth ([5]; A-375): 74.279 µM | IC50 ([5]; read-out: IC50: Concentration to inhibit 50% of cell growth, A-375): 47.9 µM | CC50 ([5]; read-out: LC50: Concentration for 50% cell death, A-375): 93.1 µM | Relative viability (%) of test items ([6]; 0.781 µM): 103.3% | Relative viability (%) of test items ([6]; 1.562 µM): 101.8% | Relative viability (%) of test items ([6]; 3.125 µM): 93.5% | Relative viability (%) of test items ([6]; 6.25 µM): 96.1% | Relative viability (%) of test items ([6]; 12.5 µM): 101.4% | Relative viability (%) of test items ([6]; 25 µM): 66.8% | Relative viability (%) of test items ([6]; 50 µM): 24.3% | Relative viability (%) of test items ([6]; 100 µM): −32.9% | TGI: Concentration for total inhibition of cell growth ([6]; NHF): 64.820 µM | IC50 ([6]; read-out: IC50: Concentration to inhibit 50% of cell growth, NHF): 35.7 µM | CC50 ([6]; read-out: LC50: Concentration for 50% cell death, NHF): > 100 µM | Relative cell viability (%) of test items ([7]; 0.781 µM): 95.9% | Relative cell viability (%) of test items ([7]; 1.562 µM): 97.5% | Relative cell viability (%) of test items ([7]; 3.125 µM): 99.9% | Relative cell viability (%) of test items ([7]; 6.25 µM): 96.1% | Relative cell viability (%) of test items ([7]; 12.5 µM): 69.4% | Relative cell viability (%) of test items ([7]; 25 µM): 27.9% | Relative cell viability (%) of test items ([7]; 50 µM): 6.3% | Relative cell viability (%) of test items ([7]; 100 µM): −47.3% | TGI: Concentration for total inhibition of cell growth ([7]; HCT 116): 47.447 µM | IC50 ([7]; read-out: IC50: Concentration to inhibit 50% of cell growth, HCT 116): 20.2 µM | CC50 ([7]; read-out: LC50: Concentration for 50% cell death, HCT 116): > 100 µM | effect on the profile of antiproliferative activity in association with cisplatin (OVCAR-3 cell line): substantially improved | Relative viability (%) of test items ([8]; 0.781 µM): 79.9% | Relative viability (%) of test items ([8]; 1.562 µM): 90.2% | Relative viability (%) of test items ([8]; 3.125 µM): 77.9% | Relative viability (%) of test items ([8]; 6.25 µM): 59.2% | Relative viability (%) of test items ([8]; 12.5 µM): 34.7% | Relative viability (%) of test items ([8]; 25 µM): 16.9% | Relative viability (%) of test items ([8]; 50 µM): −3.7% | Relative viability (%) of test items ([8]; 100 µM): −51.1% | TGI: Concentration for total inhibition of cell growth ([8]; OVCAR-3): 39.740 µM | IC50 ([8]; read-out: IC50: Concentration to inhibit 50% of cell growth, OVCAR-3): 9.46 µM | CC50 ([8]; read-out: LC50: Concentration for 50% cell death, OVCAR-3): > 100 µM | Relative viability (%) of test items ([9]; 0.781 µM): 94.8% | Relative viability (%) of test items ([9]; 1.562 µM): 106.3% | Relative viability (%) of test items ([9]; 3.125 µM): 104.4% | Relative viability (%) of test items ([9]; 6.25 µM): 105.3% | Relative viability (%) of test items ([9]; 12.5 µM): 92.2% | Relative viability (%) of test items ([9]; 25 µM): 72.4% | Relative viability (%) of test items ([9]; 50 µM): 32.5% | Relative viability (%) of test items ([9]; 100 µM): −39.4% | TGI: Concentration for total inhibition of cell growth ([9]; DU-145): 69.568 µM | IC50 ([9]; read-out: IC50: Concentration to inhibit 50% of cell growth, DU-145): 39.3 µM | CC50 ([9]; read-out: LC50: Concentration for 50% cell death, DU-145): > 100 µM | IC50 [10]: < 25 µM | Relative cell viability (%) of test items ([11]; 0.781 µM): 98.0% | Relative cell viability (%) of test items ([11]; 1.562 µM): 99.1% | Relative cell viability (%) of test items ([11]; 3.125 µM): 113.9% | Relative cell viability (%) of test items ([11]; 6.25 µM): 95.4% | Relative cell viability (%) of test items ([11]; 12.5 µM): 90.0% | Relative cell viability (%) of test items ([11]; 25 µM): 50.2% | Relative cell viability (%) of test items ([11]; 50 µM): −8.6% | Relative cell viability (%) of test items ([11]; 100 µM): −66.5% | TGI: Concentration for total inhibition of cell growth ([11]; SK-BR-3): 45.137 µM | IC50 ([11]; read-out: IC50: Concentration to inhibit 50% of cell growth, SK-BR-3): 26 µM | CC50 ([11]; read-out: LC50: Concentration for 50% cell death, SK-BR-3): 78.6 µM
